Experimental findings from patent publication US20210380714A1 are described below.

Assay [1] addresses recombinant human soluble MSLN (rHuMSLN sol.) (human) (UniProt Q13421). Kind of assay: Biacore, soluble human MSLN. In general terms: Surface plasmon resonance follows binding to a sensor surface in real time, without labels.
Assay [2] has as its target native human MSLN expressed on the cell surface (N87 / NCI-N87 tumor cells) (human) (UniProt Q13421). The assay is described as follows: KinExA, native hu MSLN on cells. Background: In KinExA the mixture passes briefly over coated beads that capture the unbound partner.
Assay [3] has as its target recombinant human soluble MSLN (rHuMSLN sol.) (human) (UniProt Q13421). The assay is described as follows: published value quoted in the Biacore column; the sheet does not name its source.

Chain of recombinant human soluble MSLN (rHuMSLN sol.) (human) (Q13421 296-606 limits assumed): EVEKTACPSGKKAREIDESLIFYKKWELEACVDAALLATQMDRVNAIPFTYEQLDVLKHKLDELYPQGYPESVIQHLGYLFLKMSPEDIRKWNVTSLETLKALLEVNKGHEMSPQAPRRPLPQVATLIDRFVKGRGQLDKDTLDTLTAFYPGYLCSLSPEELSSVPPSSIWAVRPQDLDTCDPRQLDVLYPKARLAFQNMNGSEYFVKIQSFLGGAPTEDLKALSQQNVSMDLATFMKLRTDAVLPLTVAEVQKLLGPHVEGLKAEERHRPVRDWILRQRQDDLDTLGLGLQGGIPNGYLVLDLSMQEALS
Chain of native human MSLN expressed on the cell surface (N87 / NCI-N87 tumor cells) (human) (Q13421 296-606 limits assumed): as above

For the substance MORAb-009 (antibody), the Kd (in general, the concentration at which binding is half-saturated) was determined as 0.16 nM in assay [1], 0.0022 nM in assay [2] and 1.5 nM in assay [3].
